Reference: paper PMC7025507

Target: hStau1^55 SSM/RBD5 construct (human)
Assay: SEC

stoichiometry N: 2
Substance: hStau1^55 SSM/RBD5 construct (domain or fragment)
